Assay results as given in article PMC5986196, “Arrest of trans-SNARE zippering uncovers loosely and tightly docked intermediates in membrane fusion” (The Journal of Biological Chemistry, 2018).

Target: T1, syntaxin 1a (syx(183–288)) (Rattus norvegicus, UniProt P32851 183-288)
T1 construct: also called N-terminally truncated variant of syntaxin; source: in n-octyl β-D-glucopyranoside
Experiment: co-purification by ion exchange chromatography (Mono Q); purified monomers mixed overnight at 4 °C, complex purified the next day on a Mono Q column
Conditions: both partners purified

T1 sequence (P32851 183-288): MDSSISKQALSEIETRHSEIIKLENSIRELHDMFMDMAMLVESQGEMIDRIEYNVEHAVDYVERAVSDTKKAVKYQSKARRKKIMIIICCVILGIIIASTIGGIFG

B1: syb(49–96), C-terminal fragment of synaptobrevin (domain or fragment, Rattus norvegicus, UniProt P63045 49-96, looked up)
chain: NVDKVLERDQKLSELDDRADALQAGASQFETSAAKLKRKYWWKNLKMM
notes: synaptobrevin 2 (syb), Rattus norvegicus, residues 49–96; also called synaptobrevin(49–96)
binding result: binds
